Broadly, the Kd is the free concentration of one partner at which half of the binding sites on the other are occupied at equilibrium, for simple one-to-one binding. Low values mean tighter binding, high ones weaker binding. As usually defined, the stoichiometry N is the number of molecules, sites or subunits per partner or assembly.

These results are taken from article PMC11585616, “Allosteric substrate release by a sialic acid TRAP transporter substrate binding protein” (Communications Biology, 2024).

Several values for one entry are separate records, joined by “and”; a condition that tells them apart may be missing. Equal values may be shown once.

Settings in all cases: both partners purified
Assay [1] has as its target T1, VcSiaP (Vibrio cholerae O1 El Tor N16961 …, UniProt Q9KR64).
T1 construct: all residues 1-299 seen in the crystal structures; also called SiaP from V. cholerae; VcSiaPwt; not shown: His6, N-terminal, cleaved
Briefly: ITC; VHH titrated to the SBP, 25 °C, 50 mM Tris, 50 mM NaCl, pH 8.0; one set of sites model. On the technique in general: Isothermal titration calorimetry measures the heat released or taken up as one component is titrated into another.

Assay [2] concerns the target T1, VcSiaP. Briefly: SEC-MALS; Superose6 increase 10/300, room temperature, 50 mM Tris, 50 mM NaCl, pH 8.0; 120 uM of each protein. In general terms: In gel filtration, larger molecules generally elute earlier.
Assay [3] has as its target T1, VcSiaP. The assay can be described thus: ITC; SiaP first loaded with Neu5Ac, then titrated with the VHH (sequential titration), 25 °C, 50 mM Tris, 50 mM NaCl, pH 8.0; competitive binding model for the wild type.

T1 sequence (Q9KR64 23-321, one chain of several): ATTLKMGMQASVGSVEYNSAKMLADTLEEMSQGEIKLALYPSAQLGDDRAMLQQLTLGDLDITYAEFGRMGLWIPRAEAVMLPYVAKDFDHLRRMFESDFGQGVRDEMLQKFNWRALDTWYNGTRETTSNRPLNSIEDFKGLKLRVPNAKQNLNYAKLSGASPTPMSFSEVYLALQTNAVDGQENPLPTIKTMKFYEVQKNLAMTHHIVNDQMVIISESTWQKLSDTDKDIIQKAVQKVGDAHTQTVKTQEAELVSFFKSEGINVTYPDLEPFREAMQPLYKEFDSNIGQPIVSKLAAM

B1: VHHVcP #2 (VHH)
VHH: QVQLVESGGRLVQTGGSLRLSCAASGDTFSNYVMGWFRQAPGKEREFVAAISWTGANSYYADSVAGRFTISRDNAKNTVALQMNSLKPEDTAIYYCAADHFHVTHRKYDYWGQGTQVTVSS
notes: alpaca VHH raised against VcSiaP; A second construct (pET28a, N-terminal pelB-His6-TEV, tag cleaved) was made to improve crystallization; also called Vc#2; source: E. coli WK6, periplasmic extract, purified (Ni2+-NTA, SEC); not shown: HA, C-terminal, kept; His6, C-terminal, kept
Consider B1, for which, in assay [1], the Kd was 13 nM and 16 nM. For the same molecule, the “stoichiometry N” value was 1 in assay [2] and around 1 in assay [3].

B2: VHHVcP #1 (VHH)
VHH: QVQLVESGGGLVQAGGSLRLSCAASGRTFSSSTMGWFRQAPGKEREFVAGISWSDGSTYYADSVKGRFTISRDNAKNTVYLQMNSLKPEDSAVYYCAAERWLATPQAMAVTPNALDAWGQGTQVTVSS
notes: alpaca VHH raised against VcSiaP; A second construct (pET28a, N-terminal pelB-His6-TEV, tag cleaved) was made to improve crystallization; also called Vc#1; source: E. coli WK6, periplasmic extract, purified (Ni2+-NTA, SEC); not shown: HA, C-terminal, kept; His6, C-terminal, kept
For B2, binding in assay [1] was put at a Kd of 162 nM. Besides, the “stoichiometry N” value in assay [2] amounted to 1.
